Test results published in a protein production outcome set (Wang et al. 2014).

Test: label from the status in PepcDB records
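Note: failed if final PepcDB status was selected cloned or expressed and not failed if soluble or beyond.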

Q: With “MNQCRLRSLARIRRSLTLGLRGTDQHVLARQALRTIQTTSQRRGVHDLDSFANGCSAAYIEGLYNKWKRNPSSVDESWNELFSSNDWSSPKRSPLQVSHSRKYRRPPVERIAVKARSGERTASGGASAAPAAPPSDWKNIDDHHVIQAIIRAYQSRGHLAADLDPLGIVGPKKRTSVDGTQRHAAREVLRQHFSYIFNDLNTVFKLPSSTMIGGDQEFLSLKEILDRLERIYCGHIGVEYMQITSLTKTNWLRDRFEKPGGLDLTKEEKKLILERLTRSTGFENFLAKKFSSEKRFGLEGCDIMIPAIKEVVDRATDHGVESILIGMAHRGRLNVLANICRKPISDILSQFHGLQATDSGSGDVKYHLGVFQERLNRQTNRMVRITVVANPSHLEHVNPVLLGKARAEMFQRGDTCGSTVMPIIIHGDASFSGQGVVYESMHLSDLPNYTTYGTIHIVSNNQVGFTTDPRFSRSSRYCTDVAKVVNAPILHVNADDPEACIQCARIAIDYRTRFKKDVVIDIVGYRRNGHNEADEPMFTQPLMYQRIKKLKPCLQLYADKLIKEGVVTDSEFKAMVSSYEKICEDAWAKSKTIKTIKYSSWIDSPWPGFFEGRDRLKLCPTGISTDTLKTIGNMFSTPPPPEHKFETHKGILRILAQRTQMVQDKVADWSLGEAFAFGSLLKEGIHVRLSGQDVERGTFSHRHHVLHHQSEDKVVYNSLDHLYPDQAPYSVSNSSLSECAVLGFEHGYSMASPNALVMWEGQFGDFCNTAQCIIDTFIASGETKWVRQSGVVMLLPHSMEGMGPEHSSGRIERFLQMSDDDPDVYPDTCDADFVARQLMNVNWIVTNLSTPANLFHCLRRQVKMGFRKPLINFSPKSLLRHPLARSPFKDFNECSCFQRIIPDKGPAGKQPDCVQKLVFCSGKVYYDLVKERDDHEQVETVALVRVEQLCPFPYDLISQQLELYPKAELLWAQEEHKNMGAWSYVQPRFDTALLKNENESRCVSYHGRPPSASPATGNKVQHYNEYKALITSIFGELTPENKKRIEDRIKKQQAKAKADAQSKPSTKPPAAPPKGGSSPPPGPAPRKPLISLPSRPPRGGKQRSGSAPAPNLVDEDSAARNREPDASAYDGASPSAWKRSGSAPAPSVVPRASASRSPSRKSPSPSHDGISPSTRQESLSKKKSGSAPAPTPTSRGPFRTAPSNTEFIKRRPAKDYGSRNETQSTPGESELDPTKPQP” as the sequence, how does the protein production read?
A: failed

Q: For “MNQGKIITVSGPLVVASGMQEANIQDICRVGHLGLVGEIIEMRRDQASIQVYEETSGIGPGEPVVTTGCPLSVELGPGLISEMFDGIQRPLDRFQKATDSDFLIRGVAIPSLDRKAKWAFIPKLSVGQEVVAGDILGTVQETAVIEHRIMVPYKVSGTLVAIHAGDFTVTDTVYEIKQEDGSIYQGSLMQTWPVRQSRPVAQKLIPVEPLVTGQRVIDTFFPVTKGGAAAVPGPFGAGKTVVQHQIAKFANVDIVIYVGCGERGNEMTDVLNEFPELIDPNTGQSIMERTVLIANTSNMPVAAREASIYTGITIAEYFRDMGYSVAIMADSTSRWAEALREMSGRLQEMPGDEGYPAYLGSRIAEYYERAGRVRTLGSQEREGTITAIGAVSPPGGDISEPVTQNTLRIVKVFWGLDAPLAQRRHFPAINWLTSYSLYQDDVGSYIDRKQQSNWSNKVTRAMAILQREASLEEIVRLVGLDSLSEQDRLTMAVARQIREDYLQQNAFDSVDTFTSFPKQEAMLTNILTFNEEASKALSLGAYFNEIMEGTAQVRDRIARSKFIPEENLEQIKGLTQKVTKEIHHVLAKGGI”, which protein production is on record?
A: failed

Q: With “MNQLPNCPKCLSEYCYEDGDVLICPECTHEWPKNSNNNDEESAKIIKDANGNLLQNGDTITVVKDLKIKGSSQVIKVGTKVKNIRLVDGDHDIDCRIDGIGAMKLKSQFVKKILEHHHHHH” as the sequence, how does the protein production read?
A: failed

Q: Which protein production does the source give for “MNQNKITAGGLEFLVRFAAPTDRLKINDLMIDTARWLKESGSTQWSDILHGFDVHNIEQRIELGEVALFETEAGALAGAMIIRKTPSDWDTDLWEDLAIDKAYYLHRIMVSRAFSGISLSKQMIYFAEKLGIEMSVPFIRLDCIESNETLNQMYVRYGFQFSGKKNGFYLYQKELSQK” here?
A: not failed

Q: Which protein production does the source give for “MNQNWHATLIRHLLLLITVCLIGGLVSGYYGWSLAIGLALYLGWTLKQLLRLHDWLRNHQPDEAPPDGYGLWGEVFDSIYHLQRRDQRVRGRLQAVIDRVQESTAALRDAVIMLDSDGNLEWWNRAAETLLGFKTPQDGGQQVTNLVRHPLFKEYFEAENYLEPLEIPSPINDRMRVQLHITRYGNNEHLMLVRDVTRIHQLEQMRKDFVANVSHELRTPLTVITGYLETLLDNVEDVNPRWSRALQQMSQQGSRMQTLLNDLLLLAKLEATDYPSDNQPVAVDALLAAIKNDAQALSGPRNQRINLEAAPGVKLKGSESELRSAFSNLVFNAVKYTQDEGSIRIRWWADAQGAHLSVQDSGVGIDAKHLPRLTERFYRVDSSRASNTGGTGLGLAIVKHVLMRHRGKLEISSVPGHGSTFTCHFAPAQLANEKA” here?
A: failed

Q: For “MNQPDIKGSCASEFTKVRDAFERNFVLRNEVGAAVAVWVDGDLVVNLWGGSADAGGTRPWQHDTLATVLSGTKALTATCVHQLVDRGELDLHAPVARYWPEFGQAGKQAITLAMVMSHRSGAIGPRGRLGWEQVADWDFVCEQLAAAEPWWQPGAAQGYHMTTFGFILGEVFRRVTGRTVGQYLRTEIAEPLGADVHIGLHPGEQLRCADLVDKPHIRQLLADVQAPGYPTSLNEHPKAALSVSMGFAPDDELGSNDLQLWRQIEFPGTNGQVSALGLATFYNGLAQEKLLSREHMELVRVSQGGFDTDLVLGPRVADHGWGLGYMLNQRGVNGPNPRIFGHGGLGGSFGFVDLEHRIGYAYVMNRFDATKANADPRSVVLSNEVYAALGVNRS”, which protein production is on record?
A: failed

Q: Which protein production does the source give for “MNQQLLAKTFVELADNLVADFDLIDFLRLLTDRCVGMLDASAAGVLLADRNGELRVMAASDEQVRLLELFQLQNDEGPCLDCFRTGAPVTVPDLSAVTARWPRFAVQARRSGFGAVQALPMRLRDEVVGALNLFRATPGPFDPAATPLAQALADVATISLLQQRTAHRSTVLNEQLQTALNSRVLIEQAKGKLAERQGVDMERAFTALRTYARAHNRRLSDVARAFIDNSEPLTGLGS” here?
A: failed

Q: With “MNRFSRARSYISLVLFRKSSYVTSHIPWNQCFYTSLKSSLKPASVSVSSVHCYSSRSKTAKSKMSKSSVSVSDSDKEKDAFFVVRKGDIVGIYKDLIDCQAQVGSSVYDPPVSVYKGYSLLKDTEECLSTVGLKKPLYVFRALDLKEDMFGALTPCLFQDQLPSASMSVEKLAELEPSADTSYETCIIEFDGASKGNPGLSGAAAVLKTEDGSLIFKMRQGLGIATNNAAEYHGLILGLKHAIEKGYTKIKVKTDSKLVCMQMKGQWKVNHEVLSKLHKEAKQLSDKCLSFEISHVLRSLNSDADEQANMAARLSEGEVEVA” as the sequence, how does the protein production read?
A: failed

Q: Which protein production does the source give for “MNRIKEVLEEKGIKQTWLAEKLGKSFSIVNSYVCNRRQPSLDILFEIAKILEVDVRVLIGTKENRQKSK” here?
A: not failed

Q: Which protein production does the source give for “MNRLREALKERGITQTELSTRLGKSFNMVNLYVANKHQPSIPTLFQIAEILDMDVRDLLVSNKQQNK” here?
A: failed

Q: For “MNRLRTSLTALAAAITLSGLANAATRYEELANQPFEKGFPTETAARNLIDELVFQRAVQSYLWALPAINIWSMKEASEKEFGAGYNILPTWKKRINAKTLVTTPNSDLVYAMSYLDLQKYGPLVVEAPPGVQGMFDDFFQRPIVGPTIDGKTWRGDVGLAGPDKGKGGTYVLLPPDYKGPEPTEGYVYRSRTNNVFLFWRTFFKDPKDLSVPVAEVERTKIYPLGKKDEALPMQFPDATGAPINMLFPEDGRYFDMLSRFIDAEAVDPADMDMRGFLHTLGIEKGKPFAPDAQRRKLLDEAARTAFKMSKVVTSHLLLKEPGGLYYKDRQYVNTFAGENTEFQSSGSFTNLEQRVAFFTSAYSDSPGMVMNMVGAGAKYPATTRDADGKFLDGAQTYKLNLPANVPAALFWSVTAYDNLTASGLDNGQPFPSLNQMDKPVQNSDGSTDIYFGPKSPGEGKNWIKTVPDKGFLVIVRLYGPKQAFFDQSWKPSDLLKQ”, which protein production is on record?
A: failed

Q: With “MNRRDFLQFGLRGIVVAGLGKGFYNTTSEQVEIVRTSVKIRNLPAALQGLKIGLLTDLHASFVVSSETIRSAGRLLMAEKPDLIVMTGDYISGSTRFLSGSVGQFKKEYLSKCIDALSGLKAPLGIYGVLGNHDFWSGPESVKAICEAFTRQMGMVWLRNSSVEIRRGRGSLHLLGVDDYWEPSCSLAAACKGVDTDGIKILLSHNPDINDEIFLLRERIDLVLSGHTHGGQVVVPFLGQPVMPSKFGQKYRAGLVRDGDRQTYISRGVGCLLAPIRLNCPPEATVLTLTLEHHHHHH” as the sequence, how does the protein production read?
A: not failed

Q: With “MNRSVRLITIALLLAALASLTYAVVRPFLVSIGWAVFVSYVAWPLHAWSQRRFEGRKTLSALVTTALLGSVVLAPLIWLAVLLQGEVSELIRSLPDWLEQKPRLPDFVSHIPYFGNELQAVVDQFEDLHGLLKRHAPEWVRRLGSPVLGIMTTLVQNAAVLFMTLFTLFFLFRDGLQLATDVRRVFTRVLGERLKGYFATIEATVKAVLYGIVLTALAQGFLAGLGYWIVGVKAPIVLGIATTLIAMIPFGTPFAWGSVSIWLLLQGETWAGVSLALWGTLVISWIDNIIRPLVISSATHIPFVLVMFGVLGGLASFGFIGLVLGPVILAMALAVWREWLQQVREAGLRGEDGSGTGPGERR” as the sequence, how does the protein production read?
A: failed

Q: For “MNRTAMRASQKDFENSMNQVKLLKKDPGNEVKLKLYALYKQATEGPCNMPKPGVFDLINKAKWDAWNALGSLPKEAARQNYVDLVSSLSPSLESSSQVEPGTD”, which protein production is on record?
A: not failed

Q: Which protein production does the source give for “MNRTMSSINVLSLPVFNRDASGYDALRRGLIPCFDAFYGTALDLIDDWRDAEKLRVLDLGAGTGLFTAMLLTRHPDAQIHLIDASEKMLEQARKRFDGNPAITYAVADMANTELGGPWDLIISALAIHHLEDIGKKHLFGEIRGALSEGGLFVNVEQVLGHDPEVEARYARTWLQQVRRLGVAEVEIAKAHERMSHDRCSPLENQLQWMRDTGFCEIDCSFKAWRFAVLSGRR” here?
A: failed

Q: Which protein production does the source give for “MNSAARNAPAGSQPVKAELWKRVYSRVGSYWKGLVLAVLLMAGAAATQPTLAVIMKPLLDDGFSGAKPHYVWFLPLAVVGLILLRGICNFFSDYLLAWVANNVLRGIRGEMFERLLGLPDADFKRGDTGRLLNRFTIDAGNVTGYATDVITVLVRETLVVIALIGVLLYMSWALTLIILVMLPVSVGIARAFTRRLRRINRETVNMNAELTRVVSEGIDGQRVIKLFDGYDAERRRFDFVNSRLRRFAMRSATADAALTPLTQVCISVAVGAVIAVALSQANSGALTVGSFASFMAALAQIFDPIKRLTNLAGKMQKMLVAAESVFTLVDQTPEADAGTRALPEPVRGKVEFRAVSHRFPDADRDTVSAVSFLVEPGQTVALVGRSGSGKTTLVNMLPRFVLPDGGDILFDDVPIQDLTLRSLRSHLSLVSQDVVLFDDTIAANVGYGAGGTVDDARVRDALAAANLLEFVDGLPLGIHTPVGQNAARLSGGQRQRLAIARALIKNAPVLILDEATSALDNESERQVQASLERLMRGRTTLVIAHRLSTVQNADRIIVLDAGKIVEHGPHSELLAANGLYASLYNMQFRED” here?
A: failed
